Data reported in US20210371526A1 (AMPSOURCE BIOPHARMA SHANGHAI, published 2021).

Assays:
[1] = target: T1, CD19 on tumor cells (Raji, Raji-Luc, NALM6, Reh) (human, UniProt P15391 20-556); assay: flow cytometry on CD19-positive Raji cells
T1 construct: whole, on cells; also called CD19-positive tumor cells Raji
T1 sequence (looked up): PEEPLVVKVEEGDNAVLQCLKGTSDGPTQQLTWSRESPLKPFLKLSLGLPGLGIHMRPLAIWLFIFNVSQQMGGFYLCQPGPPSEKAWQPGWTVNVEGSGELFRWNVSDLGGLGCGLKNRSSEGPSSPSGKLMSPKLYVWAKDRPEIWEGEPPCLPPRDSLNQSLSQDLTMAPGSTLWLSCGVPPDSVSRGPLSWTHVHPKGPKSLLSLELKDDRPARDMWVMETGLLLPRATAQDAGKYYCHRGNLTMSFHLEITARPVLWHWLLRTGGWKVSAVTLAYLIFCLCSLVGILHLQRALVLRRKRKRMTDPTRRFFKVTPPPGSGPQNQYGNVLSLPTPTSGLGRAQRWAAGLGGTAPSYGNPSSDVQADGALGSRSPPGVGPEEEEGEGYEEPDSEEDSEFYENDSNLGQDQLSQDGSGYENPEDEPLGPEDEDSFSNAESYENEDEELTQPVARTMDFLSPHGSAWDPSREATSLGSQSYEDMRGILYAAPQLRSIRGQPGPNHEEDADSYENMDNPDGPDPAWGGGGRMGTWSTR

[2] = target: T1, CD19 on tumor cells (Raji, Raji-Luc, …); assay: cell-based or functional assay
[3] = target: T1, CD19 on tumor cells (Raji, Raji-Luc, …); assay: cell-based or functional assay; remark: listed apart in the source
[4] = target: T1, CD19 on tumor cells (Raji, Raji-Luc, …); assay: FACS on CD19-positive Raji cells, AF647 goat anti-human IgG [left panel]
[5] = target: T1, CD19 on tumor cells (Raji, Raji-Luc, …); assay: cell-based or functional assay; remark: listed apart in the source
[6] = target: T1, CD19 on tumor cells (Raji, Raji-Luc, …); assay: cell-based or functional assay; remark: listed apart in the source
[7] = target: T2, CD3 on cynomolgus monkey T cells (CIK cells, primary T cells) (cynomolgus monkey, UniProt Q95LI5 22-198); assay: flow cytometry on cynomolgus monkey CIK/T cells
T2 construct: whole, on cells; also called cynomolgus monkey CIK cell membrane CD3

[8] = target: T2, CD3 on cynomolgus monkey T cells (CIK …); assay: flow cytometry on cynomolgus monkey primary T cells
CD20 on Raji cells [9] = target: T3, CD20 on Raji cells (human, UniProt P11836 1-297); assay: flow cytometry on CD20-positive Raji cells
T3 construct: whole, on cells; also called CD20-positive tumor cells; Raji-luc
T3 sequence (looked up): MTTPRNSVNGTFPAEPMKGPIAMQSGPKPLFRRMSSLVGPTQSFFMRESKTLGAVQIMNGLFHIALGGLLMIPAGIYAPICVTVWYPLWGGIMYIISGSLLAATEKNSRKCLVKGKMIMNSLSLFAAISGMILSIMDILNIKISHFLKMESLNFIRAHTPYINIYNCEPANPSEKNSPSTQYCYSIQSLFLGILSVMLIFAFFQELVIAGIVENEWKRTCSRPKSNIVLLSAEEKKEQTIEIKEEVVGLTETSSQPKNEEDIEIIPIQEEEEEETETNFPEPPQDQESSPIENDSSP

CD20 on Raji cells [10] = target: T3, CD20 on Raji cells; assay: cell-based or functional assay

T2 sequence (Q95LI5 22-198): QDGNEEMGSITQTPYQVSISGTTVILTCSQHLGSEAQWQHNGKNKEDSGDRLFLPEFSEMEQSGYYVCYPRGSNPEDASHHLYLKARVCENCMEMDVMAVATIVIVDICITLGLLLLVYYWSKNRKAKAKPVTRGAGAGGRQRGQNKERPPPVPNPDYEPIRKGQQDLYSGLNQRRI

B1: Bispecific antibody AB1K2 (Anti-CD19×CD3, scFv1-scFv2-Fc) (bispecific antibody)
chain: QVQLQESGPGLVKPSQTLSLTCTVSGGSISTSGMGVGWIRQHPGKGLEWIGHIWWDDDKRYNPALKSRVTISVDTSKNQFSLKLSSVTAADTAVYYCARMELWSYYFDYWGQGTLVTVSSGGGGSGGGGSGGGGSEIVLTQSPATLSLSPGERATLSCSASSSVSYMHWYQQKPGQAPRLLIYDTSKLASGIPARFSGSGSGTDFTLTISSLEPEDVAVYYCFQGSVYPFTFGQGTKLEIKGGGGGGSGGGGSGGGGSSSSSKAPPPSEVQLLESGGGLVQPGGSLKLSCAASGFTFNTYAMNWVRQAPGKGLEWVARIRSKYNNYATYYADSVKDRFTISRDDSKNTAYLQMNNLKTEDTAVYYCVRHGNFGNSYVSWFAYWGQGTLVTVSSGGGGSGGGGSGGGGSELVVTQEPSLTVSPGGTVTLTCRSSTGAVTTSNYANWVQQKPGQAPRGLIGGTNKRAPGTPARFSGSLLGGKAALTLSGVQPEDEAEYYCALWYSNLWVFGGGTKLTVLDKTHTCPPCPAPEAAGGPSVFLFPPKPKDQLMISRTPEVTCVVVDVSHEDPEVKFNWYVDGVEVHNAKTKPREEQYASTYRVVSVLTVLHQDWLNGKEYKCKVSNKALPASIEKTISKAKGQPREPQVYTLPPSRDELTKNQVSLTCLVKGFYPSDIAVEWESNGQPENNYKTTPPVLDSDGSFFLYSKLTVDKSRWQQGNVFSCSVLHEALHNHYTQKSLSLSPG
Question: B1 was tested. Which EC50 [1] did it give?
Answer: Its EC50 is 1.39 nM.

Question: What about the “EC50 of CIK-mediated killing of Reh cells” value [2] of the same binder?
Answer: Its value is 0.00171 nM.

Question: And the “EC50 of CIK-mediated killing of Raji-LUC cells” value [3]?
Answer: The value was 0.000699 nM.

Question: What about the “EC50 of CIK-mediated killing of Raji-LUC cells, second row” value [3] of the same binder?
Answer: The value was 0.000202 nM.

Question: What about the “EC50 (read off the curve)” value [4] of the same binder?
Answer: Its value is ~1 nM.

Question: And the “EC50 of activation of Jurkat T cells with NFAT RE reporter in the presence of Raji target cells” value [5]?
Answer: Its value is 1.08 nM.

Question: And the “EC50 of PBMC-mediated killing of Raji-LUC cells” value [6]?
Answer: The value was 0.00123 nM.

Question: And the “EC50 of PBMC-mediated killing of Raji-LUC cells, second row” value [6]?
Answer: Its value is 0.00125 nM.

Question: And the EC50 [7]?
Answer: The EC50 was ~5.5 nM.

B2: Bispecific antibody AB11K (Anti-Mucin1×CD3, scFv1-scFv2-Fc) (bispecific antibody)
chain: EVQLVESGGGLVQPGGSMRLSCVASGFPFSNYWMNWVRQAPGKGLEWVGEIRLKSNNYTTHYAESVKGRFTISRDDSKNSLYLQMNSLKTEDTAVYYCTRHYYFDYWGQGTLVTVSSGGGGSGGGGSGGGGSDIVMTQSPLSNPVTPGEPASISCRSSKSLLHSNGITYFFWYLQKPGQSPQLLIYQMSNLASGVPDRFSGSGSGTDFTLRISRVEAEDVGVYYCAQNLELPPTFGQGTKVEIKGGGGGGSGGGGSGGGGSSSSSKAPPPSEVQLLESGGGLVQPGGSLKLSCAASGFTFNTYAMNWVRQAPGKGLEWVARIRSKYNNYATYYADSVKDRFTISRDDSKNTAYLQMNNLKTEDTAVYYCVRHGNFGNSYVSWFAYWGQGTLVTVSSGGGGSGGGGSGGGGSELVVTQEPSLTVSPGGTVTLTCRSSTGAVTTSNYANWVQQKPGQAPRGLIGGTNKRAPGTPARFSGSLLGGKAALTLSGVQPEDEAEYYCALWYSNLWVFGGGTKLTVLDKTHTCPPCPAPEAAGGPSVFLFPPKPKDQLMISRTPEVTCVVVDVSHEDPEVKFNWYVDGVEVHNAKTKPREEQYASTYRVVSVLTVLHQDWLNGKEYKCKVSNKALPASIEKTISKAKGQPREPQVYTLPPSRDELTKNQVSLTCLVKGFYPSDIAVEWESNGQPENNYKTTPPVLDSDGSFFLYSKLTVDKSRWQQGNVFSCSVLHEALHNHYTQKSLSLSPG
Question: How did the EC50 [8] turn out when B2 was run?
Answer: The EC50 was 10 nM.

B3: Bispecific antibody AB2K (Anti-CD20×CD3, scFv1-scFv2-Fc) (bispecific antibody)
chain: QVQLQQPGAELVKPGASVKMSCKASGYTFTSYNMHWVKQTPGRGLEWIGAIYPGNGDTSYNQKFKGKATLTADKSSSTAYMQLSSLTSEDSAVYYCARSTYYGGDWYFNVWGAGTTVTVSAGGGGSGGGGSGGGGSQIVLSQSPAILSASPGEKVTMTCRASSSVSYIHWFQQKPGSSPKPWIYATSNLASGVPVRFSGSGSGTSYSLTISRVEAEDAATYYCQQWTSNPPTFGGGTKLEIKGGGGGGSGGGGSGGGGSSSSSKAPPPSEVQLLESGGGLVQPGGSLKLSCAASGFTFNTYAMNWVRQAPGKGLEWVARIRSKYNNYATYYADSVKDRFTISRDDSKNTAYLQMNNLKTEDTAVYYCVRHGNFGNSYVSWFAYWGQGTLVTVSSGGGGSGGGGSGGGGSELVVTQEPSLTVSPGGTVTLTCRSSTGAVTTSNYANWVQQKPGQAPRGLIGGTNKRAPGTPARFSGSLLGGKAALTLSGVQPEDEAEYYCALWYSNLWVFGGGTKLTVLDKTHTCPPCPAPEAAGGPSVFLFPPKPKDQLMISRTPEVTCVVVDVSHEDPEVKFNWYVDGVEVHNAKTKPREEQYASTYRVVSVLTVLHQDWLNGKEYKCKVSNKALPASIEKTISKAKGQPREPQVYTLPPSRDELTKNQVSLTCLVKGFYPSDIAVEWESNGQPENNYKTTPPVLDSDGSFFLYSKLTVDKSRWQQGNVFSCSVLHEALHNHYTQKSLSLSPG
Question: With B3 as the binder, how does the EC50 (CD20 on Raji cells [9]) read?
Answer: Its EC50 is ~70 nM.

Question: And the “EC50 of CIK-mediated killing of Raji-luc cells (luciferase)” value (CD20 on Raji cells [10])?
Answer: The value was 0.0428 µg/mL.

Question: What about the “EC50 of activation of Jurkat NFATRE Luc reporter cells in the presence of CD20-positive Raji cells” value (CD20 on Raji cells [10]) of the same binder?
Answer: Its value is 0.201 µg/mL.
